Assay results taken from paper PMC12362618, “Development of the First Small-Molecule Inhibitor Targeting Oncostatin M for Treatment of Breast Cancer” (Journal of Medicinal Chemistry, 2025).

Target: T1, glycoprotein 130 (UniProt P40189 23-619)
T1 construct: gp130 (glycoprotein 130), bought recombinant protein; also called gp130; source: bought: R&D Systems
T1 sequence (looked up): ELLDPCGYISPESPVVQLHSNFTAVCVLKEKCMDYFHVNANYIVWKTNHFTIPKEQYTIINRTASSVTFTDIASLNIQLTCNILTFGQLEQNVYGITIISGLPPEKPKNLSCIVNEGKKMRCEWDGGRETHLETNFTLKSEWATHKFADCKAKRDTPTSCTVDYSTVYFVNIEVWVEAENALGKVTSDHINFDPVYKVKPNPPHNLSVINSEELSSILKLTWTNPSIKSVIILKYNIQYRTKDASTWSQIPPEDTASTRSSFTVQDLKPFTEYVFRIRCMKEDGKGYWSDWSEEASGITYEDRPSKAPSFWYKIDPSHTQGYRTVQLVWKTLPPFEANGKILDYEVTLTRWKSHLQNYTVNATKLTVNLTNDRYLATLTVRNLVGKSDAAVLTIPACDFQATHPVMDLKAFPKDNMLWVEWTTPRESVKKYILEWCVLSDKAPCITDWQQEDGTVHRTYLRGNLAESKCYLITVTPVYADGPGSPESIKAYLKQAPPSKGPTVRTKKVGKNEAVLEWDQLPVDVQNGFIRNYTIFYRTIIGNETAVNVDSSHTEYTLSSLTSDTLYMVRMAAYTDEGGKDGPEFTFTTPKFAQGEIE
Assay: SPR; kinetics; OSM immobilised by EDC/NHS coupling on a carboxyl mixed self-assembled monolayer gold chip (Reichert SR7000), increasing concentrations of gp130 injected; 25 °C; PBS with 0.005% Tween-20; 30 μL/min
Conditions: both partners purified

B1: Oncostatin M (ligand, human, UniProt P13725 26-221, looked up)
chain: AAIGSCSKEYRVLLGQLQKQTDLMQDTSRLLDPYIRIQGLDVPKLREHCRERPGAFPSEETLRGLGRRGFLQTLNATLGCVLHRLADLEQRLPKAQDLERSGLNIEDLEKLQMARPNILGLRNNIYCMAQLLDNSDTAEPTKAGRGASQPPTPTPASDAFQRKLEGCRFLHGYHRFMHSVGRVFSKWGESPNRSRR
notes: Oncostatin M, human; about 24 kDa; immobilised for SPR; The construct is only 'as previously described'; also called OSM; source: recombinant OSM, 'as previously described'
Question: How did the Kd turn out when B1 was run?
Answer: 20.5 nM
